This data set is described as follows: label from the status in PepcDB records.
Consider “VRRIKLGSQGLEVSAQGLGCMGLSAFYGTPKPETEAIALIHHAIHSGVTFLDTSDIYGPETNELLLSKALKDGVREKVELATKYGIRYAEGKVEFKGDPAYVRAACEASLMRVDVACIDLYYQHRIDTRVPIEITIGELKKLVEEGKIKYIGLSEASASTIRRAHAVHPITALQIEWSLWSRDVEEDIIPTCRELGIGIVAYSPLGRGFFASGPKLVENLDNNDVRKTLPRFQQENLDHNKILFEKVSAMSEKKGCTPAQLALAWVHHQGDDVCPIPGTTKIENLNQNIGALSVKLTPEEMSELESLAQP”, for which the protein production entry is “failed”.

Take “MKVLVFICGEGLGHTSRGIALGRELLAAGHEVYLGAYGYSKEFIERKGYKTVEIPPEIKLVGESGSLNLKRSIISTLKGGNVFGIFKVLSLLKEKKPDIVVSDSYFTGVVASKIRGIPVYLIVNQSNMETFFKNGGIALRTMGGIIKQFYSCIFRRVDRIVIPDFPMPYTVCRLNLAFEEKVSKNLFFSGPLTLKKFDDVKAEVLQKPHVLSLIGGFGYREPIFRKVIEVAKLDKSINYTLLSGPSLNPDVFSNLPENVTIKRFINDQFPYLKASDLVIAPGGHSTIMEALTFGVPVLSFPDINHSEQESNATVVDLAGYGKRLDYSASPEEILRSIKELLKDEKIHQKVEIMKKLSKDLNATATFKELLESNSKRSQKV”: the protein production result is reported as “failed”.

As to “MLDSAQLIFDLQKVNTTSKRISGCLDTTAITKEITEALIHDFHCVFARIWLTEPDGASLKLVASSGLHTSTNGSFARVPMGAYKVGKIAQSCIPFLSNHLANETWVKDRDWAIANNIRGFAGYPLVGHDRVIGVLAVFSEAPFVAEFLEVLQVLCMAVAIAIDAVRQLQSETNTINTTQFLDDQIP”, the protein production result was “failed”. For “MAKWRVAAILSGALLAADARAEALRMLLTQIPGIIEQAPDGASMRGVGIDLMKEVGRRAGVELRFEAYPQARARLLVERQRDACLPVAHLPEQAANFKWSAPLLQMRLVLLARGDDGRQLRSLEQAGGLRVGAMRGTMAAARLKERGVAVEESADYLSGLEKLRLGRLDLWAMLDVGVASLARRLEMPPPRVAWVMDTLDVSFACNRQVDDALIARLDGAIAAMRADGSMARFDLR” the value was “failed”; for “MADTNYIRDLSLHRNNHVLYVKILSIWDNQSMIFGTPTTMILYDVKGTRIDTRVPWGDYLNNFKPSLFEGKWYYIADFRLKRATSIPKYSSFNYEIEFMWHTKMWPVSDRSDESSLQFIHADEIESESEDYVTDAIGVISSVSTEARFPYVCREGETDYEARYVTFTIRDNLDRIITCVARGSACESFLTKFYRLIGMKTYNYEPITTVLRFFRASNFKGSKALISEHGCSRIFIEESFPDFDVTVYINWFACEDDGSVEGKIEYFVEN”, “failed”. “MEGFHMVSDMCPQITGWRIYVFVVRVFKNVISPNVFELGLILADYAGSNSRIEATVDRRLAPFYEDRFVENEWKTITSFLVRKATDSVRATKHEYGILFMDRTVVVEAPPRSPPVPDFDFTPFDYILEKSAYKNVLVDVVGALVDVGGLTTDYYGLKMSFKIKDRYNEVLECEARNKQAEYLDGYFKSLGKGNFVVALSFWRLTELSNPKLASHGAISKVVANPDIPEVADIAMVVF”: the protein production result is recorded as “failed”. For “MSALSSEGFFLEKCTHFFSDKKVVFFIATLCCLLWGSAYPAIKNGYELFHIADDDIPGKLVFAGYRFAFAGLLLALAVLSGRSIGRFQRGQLAQLTILGTFQTSLQYVFFYIGLAYTTGVKGSIMNATSTFFSVLLAHYLYQNDKLNINKIIGCILGFAGVMAVNINSNGMNIGFTLLGDGFVVIAAFILSASTIYGKRISQTMDPTVMTGYQLAIGGIILTISGYCTGGSLIIPDWRAVLMLGYLILLSSAAFSLWSQLLKYNRVGMVAPFNFLIPVSGTLLSALFLNESILEWKYFFALILVCSGIWLVNRVVKTRSGK” the value was “failed”. Regarding “PCHHRITLDEFYQLFTNNKNIHLIDVRSTKEHQIQNIGGIVLPLDELPQRLHELNPNRLIILYCQSGTRSKMALDILLKAGFASVKYIENGLKGVTDNYNKDMPQ”, the protein production entry is “failed”. For “DVVVVGSGVAGPIVARDVAKAGFSVLLVDKKPAIGTPKQCAEGINVNVFKEFDIPYDKRFINREIYGARIYSPSGYTAELRYDKVSGVILERKVFDKMLAYYAAKAGADVWARTEVIDLLRKEGKIMGVKAKHEGELVEIEAKIIVAADGVESTVARLAGINTYAPPHEFDSAYEYEMIIEGYDPDLIHLWFGNEIAPRGYVWVFPKDEDRANVGIGINSDNEKTAKYYLDKWLKENNIPTKKILEINVGLVPVGGFVRELVKENVAVVGDAARQVNPVHGGGMYEAMKAANILAKWIVKALEEENLELLKNYTKEWWEVEGPKMERLLKLRRAMEKLTDEDIDVFVQLLGGTDLEKLAGGNYFEVVKALMKHPKVLMSKRRLEILKALL” the value was “failed”. Then “MEITDPGDFRQRIETSFARQGVVQAINAEISRIEHRLVEIELPFHEKLTQQHGILHAGVIAAGLDTACTYAAYTIIEPEASLLTIEFKVNLMSPGRGERFLFRGEIIKPGNNLIVADGRAYALSDGPAKLIASMTGTMMVVKGLEHHHHHH”, with “not failed”; and “MADDQGRGRRRPLNEDDSSTSRGSGDGPRVKVFRGSSSGDPRADPRIEASRERRALEEAPRREGGPTERKPWGDQYDYLNTRPAELVSKKGTDGVPVMLQTNFFRLKTKPEWRIVHYHVEFEPSIENPRVRMGVLSNHANLLGSGYLFDGLQLFTTRKFEQEITVLSGKSKLDIEYKISIKFVGFISCAEPRFLQVLNLI”, with “failed”; and “MSSLFVVGIGPGSNDLMTPQASLAIERSEYVIGFSLYVSFIKEKFPNKIYISNGMQGEIERAKKAIELARSGHNVSIISSGDAGIYGIAGAVFEILSTLEDNMPEVSVVPGIS”, with “not failed”. With “MGKDLAECYLGLGSTFRTLGEYRKAEAVLANGVKQFPNHQALRVFYAMVLYNLGRYEQGVELLLKIIAETSDDETIQSYKQAILFYADKLLEHHHHHH”, the protein production result is “failed”. For “MPLHNLTRFPRLEFIGAPTPLEYLPRFSDYLGREIFIKRDDVTPMAMGGNKLRKLEFLAADALREGADTLITAGAIQSNHVRQTAAVAAKLGLHCVALLENPIGTTAENYLTNGNRLLLDLFNTQIEMCDALTDPNAQLEELATRVEAQGFRPYVIPVGGSNALGALGYVESALEIAQQCEGAVNISSVVVASGSAGTHAGLAVGLEHLMPESELIGVTVSRSVADQLPKVVNLQQAIAKELELTASAEILLWDDYFAPGYGVPNDEGMEAVKLLARLEGILLDPVYTGKAMAGLIDGISQKRFKDEGPILFIHTGGAPALFAYHPHV” the value was “failed”. Then “MGSSLSNLNDGTNGLAMGPGLGDIPESCVACVFMYLTPPEICNLAGLNRSFRGAASSDSVWEKKLPENYQDLLDLLPPERYHSLSKKDIFAVLSRPIPFDDDNKEVWIDRVTGRVCMAISARGMSITGIEDRRYWNWIPTEESRFHVVAYLQQIWWFEVDGTVRFHLPPGVYSLSFRIHLGRFTKRLGRRVCHFELTHGWDLKPVRFSLSTSDGQEASCEYYLDDVERNEALGKHKRGYWIEYRVGEFIVNGSEPSTEIQWSMKQIDCTHSKGGLCVDSVFINPIGDVKEHKRKAVLKEA”, with “failed”. For “MSLEAIHRSTRIEFSKSSLAYNVQYTKQVSGAKTLWLAVKSNAYGHGLLQVSKIARECGVDGLAVSVLDEGIAIRQAGIDDFILILGPIDVKYAPIASKYHFLTTVSSLDWLKSADKILGKEKLSVNLAVDTGMNRIGVRSKKDLKDEIEFLQEHSDHFSYDGIFTHFASSDNPDDHYFQRQKNRWYELIDGLIMPRYVHVMNSGAAMYHSKELPGCNSIARVGTVVYGVEPSEGVLGPIDKLKPVFELKSALTFVKKIPAGEGISYGSKFVTSRDTWIGTLPIGYGDGWLAEYQDFQLLIDGQKCRQVGQIAMDQMMVALPHEYPIGTEVTLIGKSGKYENTLYDLHKHSGVPPWKITVAFSDRLKRMVVDEGHHHHHH” the value was “not failed”. With “MIPIVDSRIGAYLDGLLPEADPVVAAMEQIARERNIPIVDRQTGRLLYLLARIKQPQLVVVPGDGLGCASWWFARAISISSRVVMIDPDRDNVEHARRMLHDNGLIDRVELQVGDPLGIAAGQRDIDILFMDCDVFNGADVLERMNRCLAKNALLIAVNALRRGSVAESHEDPETAALREFNHHLSRRRDFFTTIVPVGNGVLLGYRLS”, the protein production result was “not failed”. As to “MSEKLQKVLARAGHGSRREIESIIEAGRVSVDGKIAKLGDRVEVTPGLKIRIDGHLISVRESAEQICRVLAYYKPEGELCTRNDPEGRPTVFDRLPKLRGARWIAVGRLDVNTCGLLLFTTDGELANRLMHPSREVEREYAVRVFGQVDDAKLRDLSRGVQLEDGPAAFKTIKFSGGEGINQWYNVTLTEGRNREVRRLWEAVGVQVSRLIRVRYGDIPLPKGLPRGGWTELDLAQTNYLRELVELPPETSSKVAVEKDRRRMKANQIRRAVKRHSQVSGGRRSGGRNNNG”, the protein production entry is recorded as “not failed”. For “MSLPRTLAFVSTLLLAAFCALPAQADSFIMRLLNKPVPGGVAVVDLGEEGPPPRAFYQGKPVLVVREEGRRWIAVVGIPLSTKPGPQKLEVRAATGNHEERFSVGSKHYREQRITLKNKRQVNPLPEDLKRIERELAEQTAAYRRFSPGLPSNLMLDKPVDGPLSSPFGLRRFFNGEERNPHSGLDFAVPAGTPIKAPAAGKVILIGDYFFNGKTVFVDHGQGFISMFCHLSKIDVKLGQQVPRGGVLGKVGATGRATGPHMHWNVSLNDARVDPAIFIGAFQPEGHHHHHH” the value was “not failed”; for “MKFHVIDRENWNREQYFEHYLELKCTFSMTVNVDITLLIKKVHQKGIKFYPTFIYIISRIINKHKEFRTCFNDEGVLGYWEEMIPSYTIFHKDDKSFSSIWTDYSSDFRIFYKNYEEDMRCYASVHGLLTKENIPPNIFPISGIPWTSFTGFNLNINNDGDFLLPIITCGKYFNEENKIMLPVSLQVHHSVCDGYHVSRFIEDLQELSNSCNEWLK”, “failed”. Then “MDSAAPDCTAKCRSLKHALDVLSVITKGSERQIKIFLSSYCYNAATVKDAFGRNALHLVSSCGKKAVLDWLIEKGVDLLHGVSLYMQDKEGLSPLDLLMKDRPAHVVFKNTDPTEVYTWGDNTNFTLGHGSQNSKHHPELLDLFSRSRVYVKQVVLCKFHSVFLSQQGQVYTCGHGRGGRLGHGDEQTCLVPRLVEGLSGHSCSQVAAAKDHTVVLTEDGCVYTFGLNTFHQLGIIPPPSSCNVPRQSRSSKHGHNSAQLQLIPGERQLNLKKVLVSGGCMEYKVDPEHLTENGGQKICILAMDGAGRVFCWRSLSSSLKQCRWAYPRQVSISDIALNRNEILFVTQDGEGFKGKWFEDKRKNSEKKADILPNLHHSSSDVSCVSDTNSVYERIRLEKLPFAHRAVSVSTDPSGCNFAILQSDPKTSLYEIPVVSSSSFFEEFGKLLRETDEMDSFHDVTFQVGNRLFPAHKYVLAVRSDFFQKLFLSDGTLLELTDVYRKDEDAAGCHLFVVEKVHPDLFEYLLQFMYTDTCDFLTHGFKPRMIMNKKSEDSKGSPESRLHAVNCHVDDKQKSAFEVYRSNQAHTLSERQKSKPKSSKKGKGVGEDDPVKMLQNVAKKFGLSNLSSRLDGVRYENEKINVIAKKTGNKLKLSQKKCSFLYDVTMKSVDGKEFPCHKCVLCARLEYFHSMLSRSWIEASSCAALEMPIQAEILKVILDYLYTDEAVVIKESQNVDFVCSVLVVADQLLITRLKEMCEVALAENLTLKNAAMLLEFASMYNAEQLKLSCLQFIGLNMAALLEARSLDVLSEDVLKDLSIFYRKMVPAMERRVITPYQDGPDISCVQAEDGEVFLKEEISLEPNHSPWLSSSLAASPAVAPVTFASIVEEERQQEAALIRSREKPLALIQVEEHAIQDLLVFYEAFGNPDEFVIVERTPQGPVAVPMWNKHGC”, with “failed”.
